In patent publication US8877192B2, “Rage fusion proteins and methods of use” (TransTech Pharma, LLC, priority 2004, dated 2014):

Tests used:
[1] = tested on: S100b/RAGE-induced production of TNF-α in THP-1 cells; assay: S100b/RAGE-induced production of TNF-α in THP-1 cells; type: cell-based; conditions: FIG. 10
Procedure: THP-1 myeloid cells may be cultured in RPMI-1640 media supplemented with 10% FBS and induced to secrete TNF-α via stimulation of RAGE with S100b. When such stimulation occurs in the presence of a RAGE fusion protein, induction of TNF-α by S100b binding to RAGE may be inhibited.
Previous work has shown that the myeloid THP-1 cells may secrete TNF-α in response to RAGE ligands. In this assay, THP-1 cells were cultured in RPMI-1640 media supplemented with 10% FBS using a protocol provided by ATCC. […] The amount of TNF-α secreted by the THP-1 cells was measured 24 hours after the addition of the proteins to the cell culture using a commercially available ELISA kit for TNF-α (R&D Systems, Minneapolis, Minn.).

[2] = tested on: transgenic mice expressing the human Swedish mutant amyloid precursor protein (APP); assay: Mouse model of AD (APP transgenic mice); type: in vivo
Procedure: Experiments were performed to evaluate whether TTP-4000 could affect amyloid formation and cognitive dysfunction in a mouse model of AD. The experiments utilized transgenic mice expressing the human Swedish mutant amyloid precursor protein (APP) under the control of the PDGF-B chain promoter. Over time, these mice generate high levels of the RAGE ligand, amyloid beta (Aβ).
The APP mice (male) used in this experiment were designed by microinjection of the human APP gene (with the Swedish and London mutations) into mouse eggs under the control of the platelet-derived growth factor B (PDGF-B) chain gene promoter. The mice were generated on a C57BL/6 background and were developed by Molecular Therapeutics Inc. Animals were fed ad libitum and maintained by brother sister mating. The mice generated from this construct develop amyloid deposits starting at 6 months of age. Animals were aged for 6 months and then maintained for 90 days and sacrificed for amyloid quantification.
APP transgenic mice were administered vehicle or TTP4000 every other day [qod (i.p.)] for 90 days starting at 6 months of age. At the end of the experiment, animals were sacrificed and examined for Aβ plaque burden in the brain (i.e., plaque number). A 6-month control APP group was used to determine the baseline of amyloid deposits. In addition, at the end of the study, the animals were subjected to behavioral (Morris water maze) analysis. The investigators were blinded to the study compounds. Samples were given to the mice at 0.25 ml/mouse/every other day.
For histological examination, the animals were anesthetized with an intraperitoneal injection (IP) of sodium pentobarbital (50 mg/kg). The animals were transcardially perfused with 4° C., phosphate-buffered saline (PBS) followed by 4% paraformaldehyde. The brains were removed and placed in 4% paraformaldehyde over night. The brains were processed to paraffin and embedded. Ten serial 30-μm thick sections through the brain were obtained. Sections were subjected to primary antibody overnight at 4° C. (Aβ peptide antibody) in order to detect the amyloid deposits in the brain of the transgenic animals (Guo et al., J. Neurosci., 22:5900-5909 (2002)). Sections were washed in Tris-buffered saline (TBS) and secondary antibody was added and incubated for 1 hour at room temperature. After washing, the sections were incubated as instructed in the Vector ABC Elite kit (Vector Laboratories) and stained with […] (DAB). The reactions were stopped in water and cover-slipped after treatment with xylene. The amyloid area in each section was determined with a computer-assisted image analysis system, consisting of a Power Macintosh computer equipped with a Quick Capture frame grabber card, Hitachi CCD camera mounted on an Olympus microscope and camera stand. NIH Image Analysis Software, v. 1.55 was used. The images were captured and the total area of amyloid was determined over the ten sections. A single operator blinded to treatment status performed all measurements. Summing the amyloid volumes of the sections and dividing by the total number of sections was done to calculate the amyloid volume.
For quantitative analysis, an enzyme-linked immunosorbent assay (ELISA) was used to measure the levels of human total Aβ, Aβtotal and Aβ1-42 in the brains of APP transgenic mice (Biosource International, Camarillo, Calif.). Aβtotal and Aβ1-42 were extracted from mouse brains by guanidine hydrochloride and quantified as described by the manufacturer. […]

[3] = tested on: diabetic rat model of restenosis; assay: Diabetic rat model of restenosis (balloon injury of left common carotid artery); type: in vivo, Zucker diabetic rats; conditions: 4 days after injury; dose-responsive; FIG. 13B
Procedure: In these experiments, balloon injury of left common carotid artery was performed in Zucker diabetic and nondiabetic rats using standard procedure. […] A maintenance dose was delivered every other day until day 7 after injury (i.e., at day 1, 3, 5 and 7 after injury). The maintenance dose was high=1 mg/animal for one group, or low=0.3 mg/animal for the second group. To measure vascular smooth muscle cell (VSMC) proliferation, animals were sacrificed at 4 days and 21 days after injury. For the measurement of cell proliferation, 4 day animals received intraperitoneal injection of bromodeoxyuridine (BrDdU) 50 mg/kg at 18, 12, and 2 hours before euthanasia. After sacrifice, the entire left and right carotid arteries were harvested. Specimens were stored in Histochoice for at least 24 hours before embedding. […] A fluorescence labeled goat anti-mouse secondary antibody was applied. The number of BrdU-positive nuclei per section were counted by two observers blinded to the treatment regimens.
The remaining rats were sacrificed at 21 days for morphometric analysis. Morphometric analyses were performed by an observer blinded to the study groups, using computerized digital microscopic planimetry software Image-Pro Plus on serial sections, ([…]) carotid arteries stained by Van Gieson staining All data were expressed as mean±SD. […]

B1: TTP-4000: four domain RAGE fusion protein (SEQ ID NO: 32): human RAGE amino acids 1-251 linked to CH2 and CH3 domains of human IgG (protein)
chain: MAAGTAVGAWALVLSLWGAVVGAQNITARIGEPLVLKCKGAPKKPPQRLEWKLNTGRTEAWKVLSPQGGGPWDSVARVLPNGSLFLPAVGIQDEGIFRCQAMNRNGKETKSNYRVRVYQIPGKPEIVDSASELTAGVPNKVGTCVSEGSYPAGTLSWHLDGKPLVPNEKGVSVKEQTRRHPETGLFTLQSELMVTPARGGDPRPTFSCSFSPGLPRHRALRTAPIQPRVWEPVPLEEVQLVVEPEGGAVAPPSVFLFPPKPKDTLMISRTPEVTCVVVDVSHEDPEVKFNWYVDGVEVHNAKTKPREEQYNSTYRVVSVLTVLHQDWLNGKEYKCKVSNKALPAPIEKTISKAKGQPREPQVYTLPPSRDELTKNQVSLTCLVKGFYPSDIAVEWESNGQPENNYKTTPPVLDSDGSFFLYSKLTVDKSRWQQGNVFSCSVMHEALHNHYTQKSLSLSPGK
- reduction of induction of TNF-α by S100b ([1]; 10 μg protein, S100b 0.1 mg/ml FAC, 24 hours): ~70%
- blocking S100b induction of TNF-α compared with sRAGE ([1]; 10 μg): at least as effective in blocking S100b induction of TNF-α as is sRAGE
- inflammatory cytokines IL-1 and TNF-α ([2]; data not shown): reduce
- Aβ plaques in the brain ([2]; treated for 3 months, versus vehicle and human IgG1, FIG. 14A): fewer Aβ plaques
- cognitive dysfunction (Morris water maze) ([2]; treated for 3 months, versus vehicle and human IgG1, FIG. 14B): less cognitive dysfunction
- vascular smooth muscle cell proliferation (BrdU-positive nuclei) [3]: significantly reduced
